According to the nanobody polyreactivity screen of Harvey et al. (2022):

Assay: yeast display, Sf9 membrane polyspecificity reagent, FACS + sequencing; frameworks hold sequencing errors
Outline: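 Genes from sorted yeast were amplified by colony PCR, read by MiSeq 2 × 250 sequencing and filtered on CDR length. These cells carried a synthetic nanobody library in Saccharomyces cerevisiae BJ5465 and were sorted by FACS into low and high (top ~1%) gates on anti-HA and streptavidin fluorescence. Polyreactivity is labelled according to the gate of origin.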

Row | Sequence | polyreactivity (PSR sort gate)
1 | QVQLVESRGGLVQAGGSLRLSCAASGRIFAYYAKGWYRPAPGKERELVAAIRGSGGSTYYAESVKGRFTISRDNAKNTVYLQMNSLKPEDTAVYYCAARTQPKKFYYWGQGTQVTVSS | high polyreactivity
2 | QVQLVESGGGIVQAGGSLRLSCAASGSIQRYNDMGWYRQAPGKERELVAAISRSGGSTYYTDSVKGRFTISRDNAKNTDYLQMNSLKPEDTAVYFCYKASYTTVYAKYYYWGLGTQVTVSS | high polyreactivity
3 | QVQLLESGGGLVQAGGSLRLSCAASGFTFEDNAMGWYRKAPGKERELVAADGTNYADSVKGRFTISRDNAKNTVYLQMNSLKPEDTAVYYCARYARQVTPLSIGLYDYWGQGTQVTVSS | low polyreactivity
4 | QVQLVESGGGLFQAGGSLRLSCAASGFTFNRNAMGWYRQAPGKERELVAAISWSGGSTYYADSVKGRFTISRDNAKNPVYLQMNSLKPEDTAVYYCAKGYRRVYGPFYYWGQGTQVTVSS | low polyreactivity
5 | QVQLVESGGGLVQAGGSLRLSCAASGFIFYKYAMGWYRQAPGKERELVARISISGGRTYYADSVKGRFTISRDNAKNTVYLQMNSLKPEDTAVYYCATSPWWYGYAAYGMDYWGQGTQVTVSS | low polyreactivity
6 | QVQLVESGGGLVQAGGSLRLSCAASGSTFYKNAMGWYRQAPGKERELVARISGRGGSTYYADSVKCRFTISRDNAKNSVYLQMNSLKPEDTAVYYCNAVKYSSSAALYDYWGQGTQVTVSS | high polyreactivity
7 | QVQLVESGGGLVQAGGSLRLSCAASGSIFISYAMGWYRQAPGKERELVAAITSGGRTNYADSVKGRFTISRDNAKNTVYLQMNSLKPEDTAVYYCAKRQSHSRKYDYWGQGTQVTVSS | low polyreactivity
8 | QVQLVESGGGLVQAGGSLRLSCAASGRTFVANAMGWYRQAPGKERELVAAITSTGSTYYADSVKGRFTISRDNAKNTVYLQMNSLKPEDTAVYYCATYYWLGLSLYDYWGQGSQVTVSS | low polyreactivity
9 | QVQLVESGGGLVQAGGSLRLSCAASGSIFGGYAMGWYRQAPGKERELVAAISYRGASTYYADSVKGRFTISRDNAKNTVYLQMNSLKPEDTAVYYCAARHDKRRQYYVGQSAFDYWGQGTQVTVSS | low polyreactivity
10 | QVQLVESGGGLVQAGGSLRLSCAASGFIIVNNAMGWYRQAPGKERELVATISRGGSTNYADSVKGRFTISRDNAKNTVYLQMNSLKPEDTAVYYCNARRSVKVYGVDYWGQGTQVTVSS | high polyreactivity
11 | HVQLVESGGGLVQAGGSLRLSCAASGSTFAAYAMGWYRQAPGKERELVAAITKRGGTTYYADSVKGRVTISRDHAKNSVYLQMNSLKPEDTAVYYCAKTRYYSALLHYDYDTWGQGTQVTVST | high polyreactivity
12 | QVQLVESGGGLVQAGGILRLSCAASGSIVTDNAMGWYRQAPGKERELVAAITSSGNTNYADSVKGRFTISRDNAKNTVYLQINSLKPEDTAVYYCAADSYYKHWTDWLPVGEDYWGQGTQVTVSS | low polyreactivity
13 | QVQLVESGGGLVQAGGSLRLSCAASGSTIPNYAKGWYRQAPGKERELVARIRWNGDSTYYADSVKGRFTISRDNAKNTVYLQMNSLKPEDTAVYYCARQGYTLYRTRYRYDYWGQGTQVTASS | high polyreactivity
14 | QVQLVESGGGLVQAGGSLRLSCAASGSIFEPYAMGWYRQAPGKERELVAAIRVSGGSTYYADSVKGRFTISRDNAKNTVYLQMNSLKPEDTAVYYCAADWWSRYYYWGQGTQVTVSS | high polyreactivity
15 | QVQLVESGGGLVQAGGSLRLSCAASGITTTVYAMGWYRQAPGKERELVAGISWSTSSTYYADSVKGRFTISRDNAKNTVYLQMNSLKPEDNAVYYCAVYTITGRVLRQGPLYRHYYWGQGTQVTVSS | high polyreactivity
16 | QVQLVESGGGLVQAGGSLRLSCAASGSIFAYYTMGWSRQAPGKERELVAAITSGGSTNYADSVKGRFTISRDNAKNTVYLQMNSLKPEDTAVYYCAVQGSRYSYRYGYRFRTMDYWGQGTQVTVSS | high polyreactivity
17 | QVQLVESGGGLVQAGGSLRLSCAASGSTFQTYAMGWYRQAPGKERELVAAISRRSGSTYYADSVKGRFTISRDNAKNTVYLQMNSLKPEDTAVYYCAARYVSRRFLGYYYWGQGTQVTVSS | high polyreactivity
18 | QVQLVESAGGLVQAGGSLRLSCAASGRIFRSNAMGWYRQAPGQERELVAAINNRDTSTYADSVKGRFTISRDNAKNTVYLQMNSLKPEDTAVFYCAARYQYYSTYGVTLDYWGQGSQVTVSS | low polyreactivity
19 | QVQLVESGGGLVQAGGSLRLSCAASGRIFKWYAMGWYRQAPGKERELVAAISRSGGTTYYADSVKGRFTISRDNAKNTVYLQMNSLKPEDTAVYYCATRNIYFSSVDYWGQGTQVTVSS | high polyreactivity
20 | QVQLVESGGGLVQAGGSLRLSCAASGSTRYNAMGWYRQAPGKERELVASIRGNAGSTYYADSVKGRFTISRDNAKNTVYLQMNSLKPEDTAVYYCNARYWYRYGGYKPVGGYYWGQGTQVTVSS | high polyreactivity
21 | QVQLVESGGGLVQAGGSLRLSCAASGRTFGGNAMGWYRQAPGKERELVAAISGRGGSTYYADSVKGRFTISRDNAKNTVYLQMNSLKPEDTAVYYCAARSYLTPEYYYWGQGTQVTVSS | high polyreactivity
